Assay results taken from US20180028609A1 (UCL BUSINESS, published 2018).
Positions count from the first letter of the chain named. Numbers in names are those of the source.

B1: chimeric 15C4 antibody (murine 15C4 variable regions with human IgG4 (S241P) heavy chain constant region and Kappa light chain constant region) (antibody, V domains shown)
VH: QVQLQQSGDEVVRPGSSVKISCKASGYTFSGYWMNWVKQRPGQGLQWIGQIYPGDGDTNYNGKFKGKATLTADKSSSTAYMQLSTLTSEDSAIYFCARSITTVVLDYWGQGTTLTVSS
VL: DIVLTQSPVSLAVSLGQRATISCRASQSVSTSGYSFMHWYQQKPGQPPKFLIKYASNLESGVPARFSGSGSGTDFTLNIHPVEEEDTATYYCQHSWEMPLTFGAGTKLELK
notes: Human IgG4 (S241P) heavy chain constant region and human Kappa light chain constant region; Expressed transiently in HEK EBNA cells and stably in NS0 cells; also called chimeric antibody; VH0/Vk0
B2: Antibody 15C4 (mouse monoclonal antibody against human Lrg1) (antibody, V domains shown)
VH: B1 VH
VL: B1 VL
notes: Murine hybridoma antibody; also called mouse 15C4; mAb 15C4
B3: control antibody VH1/Vk0 (antibody, V domains shown)
VH: B1 VH with Q5V, V12K, R13K, I20V, R40A, K67R, L70I, S76T, L114V
VL: B1 VL
B4: control antibody VH0/Vk1 (antibody, V domains shown)
VH: B1 VH
VL: B1 VL with V9D, Q17E, N78T, H80S, P81S, V82L, E83Q, T87F, A104Q, L110I
B5: Magacizumab (humanised 15C4 antibody comprising heavy chain variable region VH5 and kappa light chain variable region VK3) (antibody, V domains shown)
VH: QVQLVQSGAEVKKPGSSVKVSCKASGYTFSGYWMNWVRQAPGQGLEWIGQIYPGDGDTNYNGKFKGRVTITADKSTSTAYMELSSLRSEDTAVYYCARSITTVVLDYWGQGTTVTVSS
VL: DIVLTQSPDSLAVSLGERATISCRASQSVSTSGYSFMHWYQQKPGQPPKLLIKYASNLESGVPARFSGSGSGTDFTLTISSLQPEDFATYYCQHSWEMPLTFGQGTKLEIK
notes: also called VH5/Vk3_3B6 clone; humanised antibody

How the values were obtained:
[1] = target: T1, human Leucine-rich alpha-2-glycoprotein 1 (Lrg1) (human, UniProt P02750 36-347, limits assumed); experiment: competition ELISA on coated hLrg1; competitor biotinylated mouse 15C4 at 0.4 µg/ml
T1 construct: In the western blots the native protein of conditioned medium, vitreous and serum was probed; also called human Lrg1; hLrg1
T1 sequence: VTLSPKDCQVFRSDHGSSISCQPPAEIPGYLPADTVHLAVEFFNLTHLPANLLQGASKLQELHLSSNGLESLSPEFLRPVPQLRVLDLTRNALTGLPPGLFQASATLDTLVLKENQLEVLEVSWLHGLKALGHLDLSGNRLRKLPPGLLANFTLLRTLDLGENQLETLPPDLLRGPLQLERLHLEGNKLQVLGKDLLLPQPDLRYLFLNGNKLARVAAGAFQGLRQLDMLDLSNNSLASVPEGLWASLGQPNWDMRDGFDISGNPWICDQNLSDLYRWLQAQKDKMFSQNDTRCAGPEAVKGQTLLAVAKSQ

[2] = target: T1, human Leucine-rich alpha-2-glycoprotein …; experiment: competition ELISA: plate coated with hLrg1, dilution series of the test antibody premixed with biotinylated mouse 15C4 (0.4 µg/ml); bound biotinylated 15C4 detected with streptavidin-HRP and TMB [top graph]
Procedure: (§1) The chimeric antibody was expressed transiently in HEK EBNA cells and stably in NS0 mouse myeloma cells, purified and tested for binding to human Lrg1 in a competition ELISA assay. A Nunc Immuno MaxiSorp 96 well flat bottom microtitre plate (Fisher, cat. no. DIS-971-030J) was pre-coated with 0.2 μg/ml hLrg1 (supplied by UCL) overnight in 0.1 N Sodium Carbonate buffer (NaHCO₃) at +4° C. The following day the plate was washed 1× with PBST and blocked with 3% BSA/PBS for 1 hour at room temperature. After washing 3× with PB ST, a three-fold dilution series of chimeric, mouse or control antibodies from 100 μg/ml to 0.13 μg/ml was premixed with a constant concentration of biotinylated mouse 15C4 (0.4 μg/ml, final concentration), added to the plates and incubated for 1.5 hours at room temperature. Following 3×PBST washes, the binding of the biotinylated mAb was detected with streptavidin-HRP (Sigma, cat. no. 55512) and TMB substrate (Invitrogen, cat. no. 00-2023). The reaction was stopped with 3 M HCl, absorbance read at 450 nm on a Dynex Technologies MRX TC II plate reader and the binding curves plotted.

[3] = target: T1, human Leucine-rich alpha-2-glycoprotein …; experiment: competition ELISA: plate coated with hLrg1, dilution series of the test antibody premixed with biotinylated mouse 15C4 (0.4 µg/ml); bound biotinylated 15C4 detected with streptavidin-HRP and TMB [bottom graph]
Procedure: as §1

[4] = target: T2, Lrg1 peptide GNKLQVLGKDLLLPQ (amino acids 221-235 of Lrg1) (human); experiment: ProArray Ultra peptide microarray, fluorescent secondary antibody
T2 construct: Synthetic 15-mer of the overlapping library
T2 peptide: GNKLQVLGKDLLLPQ
Procedure: The determination of peptide-antibody binding was performed by incubation of serum or antibody samples with a ProArray Ultra® peptide microarray, followed by incubation with a fluorescent-labelled secondary antibody.
ProArray Ultra® slides were blocked using a validated blocking buffer to reduce non-specific binding of the sera. They were then incubated with test samples, followed by incubation with a specific fluorescent-labelled secondary antibody. After several washing steps, the ProArray Ultra® arrays were dried and scanned using a high-resolution fluorescence microarray scanning system.
Overlapping peptides representing LRG1 were synthesized and printed onto ProArray Ultra® microarray slides, alongside selected murine IgG controls. Slides were incubated with murine monoclonal antibody samples 4H2, 15C4 and 3A11 to identify putative epitopes. An overlapping peptide library representing Lrg1 was synthesized from the sequence provided by the sponsor. 15-mer synthetic peptides, overlapping by 10 amino acids, were generated.

[5] = target: T1, human Leucine-rich alpha-2-glycoprotein …; experiment: Biacore SPR; human Lrg1 immobilised, mAb at 20-100 nM
Procedure: The four lead mAbs were examined using Biacore, in experiments in which human Lrg1 was immobilized on the chip, and mAbs passed across at concentrations ranging from 20-100 nM. The Table below summarises the kinetic data.

[6] = target: T1, human Leucine-rich alpha-2-glycoprotein …; experiment: competition ELISA: dilution series of the purified antibody against a fixed concentration of biotinylated mouse 15C4 on recombinant hLRG1; bound biotinylated 15C4 detected with streptavidin-peroxidase and TMB [bottom panel]
From the text: Top panel-Analytical size exclusion chromatography showing single peak and no aggregates. SDS-PAGE showing reduced (lane 1) and non-reduced (lane 2) antibody. Bottom panel-Anti-hLRG1 competition ELISA. A dilution series of each purified antibody was competed against a fixed concentration of biotinylated mouse 15C4 for binding to recombinant hLRG1. Bound biotinylated mouse 15C4 was detected using streptavidin-peroxidase and TMB substrate.
The properties of Magacizumab were investigated. Analytical size exclusion chromatography was conducted showing a single peak and no aggregates (FIG. 20). An anti-hLrg1 competition ELISA was carried out. A dilution series of each purified antibody was competed against a fixed concentration of biotinylated mouse 15C4 for binding to recombinant hLrg1. Bound biotinylated mouse 15C4 was detected using streptavidin-peroxidase and TMB substrate. This was an analytical step in which several humanised variants were tested against the chimeric 15C4, in order to identify those that retained the best binding characteristics.

Binder	IC50 fold difference against mouse 15C4 [1]	IC50 (read off the curve) [2]	IC50 (read off the curve) [3]	further results
B1	≤ 2 fold	~6 µg/mL	~3 µg/mL	–
B2	–	~5 µg/mL	~3 µg/mL	binding result [4]: binds; Kd [5]: 1.27 pM
B3	≤ 2 fold	–	–	–
B4	≤ 2 fold	–	–	–
B5	–	–	–	binding result [6]: binds
